Results published in patent US20210388087A1 (Chugai, published 2021).
Numbering of substitutions follows the chain as printed. Names and notes keep the numbering of the source. Each block holds one binder with its values, some of them ahead of it.

Molecular target: T1, Human CD3eg linker (human)
T1 construct: Single chain: epsilon and gamma subunits of human CD3 joined by a 29-mer linker, Flag-tag at the C-terminus; also called recombinant human CD3
T1 chain: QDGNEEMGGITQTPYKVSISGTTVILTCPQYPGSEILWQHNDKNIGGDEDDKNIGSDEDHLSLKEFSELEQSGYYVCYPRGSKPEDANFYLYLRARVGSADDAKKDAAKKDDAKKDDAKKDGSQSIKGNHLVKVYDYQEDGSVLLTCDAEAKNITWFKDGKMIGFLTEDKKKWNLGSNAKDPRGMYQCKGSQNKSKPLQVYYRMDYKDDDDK
Test: Biacore SPR, vs template H183/L072

B1: H183/L072 VH K52I (antibody, name in Kabat numbering, V domains shown)
VH: QVQLVESGGGLVQPGRSLRLSCAASGFTFSNAWMHWVRQAPGKGLEWVAQIIDKGNAYAAYYAPSVKGRFTISRDDSKNSIYLQMNSLKTEDTAVYYCHYVHYASASTVLPAFGVDAWGQGTTVTVSS
VL: DIVMTQSPLSLPVTPGEPASISCQASQELVHMNRNTYLHWYQQKPGQAPRLLIYKVSNRFPGVPDRFSGSGSGTDFTLKISRVEAEDVGVYYCAQGTSVPFTFGQGTKLEIK
fold change of affinity: 0 fold

B6: H183/L072 VH K52bN (antibody, name in Kabat numbering, V domains shown)
VH: B1 VH with I52K, K54N
VL: B1 VL
fold change of affinity: 0.5 fold

B8: H183/L072 VH K52bW (antibody, name in Kabat numbering, V domains shown)
VH: B1 VH with I52K, K54W
VL: B1 VL
fold change of affinity: 0.6 fold

B10: H183/L072 VH K52bS (antibody, name in Kabat numbering, V domains shown)
VH: B1 VH with I52K, K54S
VL: B1 VL
fold change of affinity: 0.7 fold

B11: H183/L072 VH K52L (antibody, name in Kabat numbering, V domains shown)
VH: B1 VH with I52L
VL: B1 VL
fold change of affinity: 0 fold

B12: H183/L072 VH K52P (antibody, name in Kabat numbering, V domains shown)
VH: B1 VH with I52P
VL: B1 VL
fold change of affinity: 0 fold

B13: H183/L072 VH K64A (antibody, name in Kabat numbering, V domains shown)
VH: B1 VH with I52K, K67A
VL: B1 VL
fold change of affinity: 1 fold

B14: H183/L072 VH K52bI (antibody, name in Kabat numbering, V domains shown)
VH: B1 VH with I52K, K54I
VL: B1 VL
fold change of affinity: 0.8 fold

B15: H183/L072 VH K52R (antibody, name in Kabat numbering, V domains shown)
VH: B1 VH with I52R
VL: B1 VL
fold change of affinity: 0.8 fold

B18: H183/L072 VH K52Q (antibody, name in Kabat numbering, V domains shown)
VH: B1 VH with I52Q
VL: B1 VL
fold change of affinity: 0.3 fold

B19: H183/L072 VH K52bV (antibody, name in Kabat numbering, V domains shown)
VH: B1 VH with I52K, K54V
VL: B1 VL
fold change of affinity: 0.6 fold

B20: H183/L072 VH K52bY (antibody, name in Kabat numbering, V domains shown)
VH: B1 VH with I52K, K54Y
VL: B1 VL
fold change of affinity: 0.7 fold

B23: H183/L072 VH K52bA (antibody, name in Kabat numbering, V domains shown)
VH: B1 VH with I52K, K54A
VL: B1 VL
fold change of affinity: 0.7 fold

B24: H183/L072 VH K52N (antibody, name in Kabat numbering, V domains shown)
VH: B1 VH with I52N
VL: B1 VL
fold change of affinity: 0 fold

B25: H183/L072 VH K52V (antibody, name in Kabat numbering, V domains shown)
VH: B1 VH with I52V
VL: B1 VL
fold change of affinity: 0 fold

B26: H183/L072 VH K52bR (antibody, name in Kabat numbering, V domains shown)
VH: B1 VH with I52K, K54R
VL: B1 VL
fold change of affinity: 1.2 fold

B27: H183/L072 VH K52T (antibody, name in Kabat numbering, V domains shown)
VH: B1 VH with I52T
VL: B1 VL
fold change of affinity: 0.5 fold

B28: H183/L072 VH K52W (antibody, name in Kabat numbering, V domains shown)
VH: B1 VH with I52W
VL: B1 VL
fold change of affinity: 0 fold

B29: H183/L072 VH K52M (antibody, name in Kabat numbering, V domains shown)
VH: B1 VH with I52M
VL: B1 VL
fold change of affinity: 0.6 fold

B32: H183/L072 VH K52bH (antibody, name in Kabat numbering, V domains shown)
VH: B1 VH with I52K, K54H
VL: B1 VL
fold change of affinity: 0.7 fold

B33: H183/L072 VH K52Y (antibody, name in Kabat numbering, V domains shown)
VH: B1 VH with I52Y
VL: B1 VL
fold change of affinity: 0 fold

B34: H183/L072 VH K52S (antibody, name in Kabat numbering, V domains shown)
VH: B1 VH with I52S
VL: B1 VL
fold change of affinity: 0 fold

B35: H183/L072 VH K52bT (antibody, name in Kabat numbering, V domains shown)
VH: B1 VH with I52K, K54T
VL: B1 VL
fold change of affinity: 0.3 fold

B36: H183/L072 VH K52bF (antibody, name in Kabat numbering, V domains shown)
VH: B1 VH with I52K, K54F
VL: B1 VL
fold change of affinity: 0.4 fold

B37: H183/L072 VH K52bG (antibody, name in Kabat numbering, V domains shown)
VH: B1 VH with I52K, K54G
VL: B1 VL
fold change of affinity: 0.8 fold

B39: H183/L072 VH K52bP (antibody, name in Kabat numbering, V domains shown)
VH: B1 VH with I52K, K54P
VL: B1 VL
fold change of affinity: 0.5 fold

B40: H183/L072 VH K52bE (antibody, name in Kabat numbering, V domains shown)
VH: B1 VH with I52K, K54E
VL: B1 VL
fold change of affinity: 0.5 fold

B41: H183/L072 VH K52bD (antibody, name in Kabat numbering, V domains shown)
VH: B1 VH with I52K, K54D
VL: B1 VL
fold change of affinity: 0 fold

B43: H183/L072 VH K52bL (antibody, name in Kabat numbering, V domains shown)
VH: B1 VH with I52K, K54L
VL: B1 VL
fold change of affinity: 0.6 fold

B44: H183/L072 VH K52bM (antibody, name in Kabat numbering, V domains shown)
VH: B1 VH with I52K, K54M
VL: B1 VL
fold change of affinity: 0.5 fold

B45: H183/L072 VH K52bQ (antibody, name in Kabat numbering, V domains shown)
VH: B1 VH with I52K, K54Q
VL: B1 VL
fold change of affinity: 0.7 fold

Now from value to binder:

fold change of affinity: 1.4 fold
B2: H183/L072 VH L100dP (antibody, name in Kabat numbering, V domains shown)
VH: B1 VH with I52K, L110P
VL: B1 VL

fold change of affinity: 1 fold
B3: H183/L072 VH L100dM (antibody, name in Kabat numbering, V domains shown)
VH: B1 VH with I52K, L110M
VL: B1 VL

fold change of affinity: 1.2 fold
B4: H183/L072 VH L100dI (antibody, name in Kabat numbering, V domains shown)
VH: B1 VH with I52K, L110I
VL: B1 VL

fold change of affinity: 1.2 fold
B5: H183/L072 VH L100dA (antibody, name in Kabat numbering, V domains shown)
VH: B1 VH with I52K, L110A
VL: B1 VL

fold change of affinity: 0.1 fold
B7: H183/L072 VH M34F (antibody, name in Kabat numbering, V domains shown)
VH: B1 VH with M34F, I52K
VL: B1 VL

fold change of affinity: 1.1 fold
B9: H183/L072 VH K64L (antibody, name in Kabat numbering, V domains shown)
VH: B1 VH with I52K, K67L
VL: B1 VL

fold change of affinity: 0 fold
B16: H183/L072 VH M34D (antibody, name in Kabat numbering, V domains shown)
VH: B1 VH with M34D, I52K
VL: B1 VL

fold change of affinity: 1.1 fold
B17: H183/L072 VH K64M (antibody, name in Kabat numbering, V domains shown)
VH: B1 VH with I52K, K67M
VL: B1 VL

fold change of affinity: 0 fold
B21: H183/L072 VH M34H (antibody, name in Kabat numbering, V domains shown)
VH: B1 VH with M34H, I52K
VL: B1 VL

fold change of affinity: 0 fold
B22: H183/L072 VH M34A (antibody, name in Kabat numbering, V domains shown)
VH: B1 VH with M34A, I52K
VL: B1 VL

fold change of affinity: 0 fold
B30: H183/L072 VH M34E (antibody, name in Kabat numbering, V domains shown)
VH: B1 VH with M34E, I52K
VL: B1 VL

fold change of affinity: 1.6 fold
B31: H183/L072 VH K64P (antibody, name in Kabat numbering, V domains shown)
VH: B1 VH with I52K, K67P
VL: B1 VL

fold change of affinity: 0 fold
B38: H183/L072 VH M34G (antibody, name in Kabat numbering, V domains shown)
VH: B1 VH with M34G, I52K
VL: B1 VL

fold change of affinity: 1 fold
B42: H183/L072 VH K64I (antibody, name in Kabat numbering, V domains shown)
VH: B1 VH with I52K, K67I
VL: B1 VL
